Results on 17 substances are retold here after patent publication US20200024330A1.

As a reminder, the IC50 is the concentration that gives 50% inhibition. A low value points to higher potency.

Test in all cases: cell-based or functional assay
The target of experiment [1] is HIV-1 MGRM-F1-010 Env (pseudovirus) (HIV-1).
Experiment [2] concerns the target HIV-1 Env of isolate MGRM-D-013 (clade D) (HIV-1).
Experiment [3] addresses HIV-1 APV-17 envelope protein (Env) on pseudovirus (HIV-1).
The target in experiment [4] is HIV-1 92RW009 envelope glycoprotein (Env) (HIV-1).
In experiment [5] the target is HIV-1 MGRM-C-014 Env (HIV-1).
Experiment [6] concerns the target HIV-1 IAVI-C22 envelope protein (Env) on pseudovirus (HIV-1).
The target of experiment [7] is HIV-1 Env of isolate MGRM-D-005 (clade D) (HIV-1).
Experiment [8] deals with HIV-1 MGRM-A-005 envelope glycoprotein (Env) (HIV-1).
Experiment [9] addresses HIV-1 MGRM-F1-012 Env (pseudovirus) (HIV-1).
For experiment [10], the target named is HIV-1 Env of isolate CMU02 (HIV-1).
Experiment [11] addresses HIV-1 Env of pseudovirus PVO.4 (Acute), clade B (HIV-1).
The target of experiment [12] is HIV-1 MGRM-C-007 Env (HIV-1).
In experiment [13] the target is HIV-1 92UG037 envelope glycoprotein (Env) (HIV-1).
The target in experiment [14] is HIV-1 94UG103 envelope protein (Env) on pseudovirus (HIV-1).
The target of experiment [15] is HIV-1 MGRM-F1-023 Env (pseudovirus) (HIV-1).
In experiment [16] the target is HIV-1 MGRM-A-002 envelope glycoprotein (Env) (HIV-1).
Experiment [17] addresses HIV-1 Env of isolate MGRM-D-003 (HIV-1).
Experiment [18] deals with HIV-1 Env of isolate MGRM-D-020 (HIV-1).
Experiment [19] concerns the target HIV-1 Env of isolate MGRM-G-014 (subtype G) (HIV-1).
Experiment [20] concerns the target HIV-1 Env of isolate MGRM-F1-010 (subtype F) (HIV-1).
Experiment [21] deals with HIV-1 Env of isolate MGRM-C-002 (pseudovirus) (HIV-1 isolate MGRM-C-002, subtype C).
Experiment [22] deals with HIV-1 Env of isolate MGRM-F1-022 (HIV-1).
Experiment [23] addresses HIV-1 Env of isolate MG RM-AG-011 (HIV-1).
In experiment [24] the target is HIV-1 Env of isolate MG RM-D-029 (subtype D) (HIV-1).
Experiment [25] deals with HIV-1 Env of isolate MG RM-D-020 (subtype D) (HIV-1).
Experiment [26] has as its target HIV-1 6535.3 Env (pseudovirus) (HIV-1).
Experiment [27] concerns the target HIV-1 Env of isolate MG RM-D-016 (subtype D) (HIV-1).
The target of experiment [28] is HIV-1 Env of isolate MGRM-G-028 (HIV-1).
For experiment [29], the target named is HIV-1 Env of isolate MGRM-G-013 (subtype G) (HIV-1).
Experiment [30] deals with HIV-1 Env of isolate 97ZA012 (HIV-1).
In experiment [31] the target is HIV-1 Env of isolate THR0.18 (HIV-1).
Experiment [32] concerns the target HIV-1 Env of isolate SF162 (HIV-1) (UniProt P19550).

Chain of 1443_C16 (PG16) (TCN-116) (antibody) (VH): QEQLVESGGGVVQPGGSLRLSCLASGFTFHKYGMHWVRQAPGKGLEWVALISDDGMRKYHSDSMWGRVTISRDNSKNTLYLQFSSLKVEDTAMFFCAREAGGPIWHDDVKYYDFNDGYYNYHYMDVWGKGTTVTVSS
Chain of 1443_C16 (PG16) (TCN-116) (antibody) (VL): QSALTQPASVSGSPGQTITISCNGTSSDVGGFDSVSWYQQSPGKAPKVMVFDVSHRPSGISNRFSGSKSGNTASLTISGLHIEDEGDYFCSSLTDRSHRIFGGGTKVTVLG
Chain of PGT-141 (4964_G22; 4993_K13) (antibody) (VH): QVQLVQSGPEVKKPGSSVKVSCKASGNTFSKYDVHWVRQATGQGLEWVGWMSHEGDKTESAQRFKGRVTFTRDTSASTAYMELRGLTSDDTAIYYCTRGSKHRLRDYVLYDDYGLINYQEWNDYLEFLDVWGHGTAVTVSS
Chain of PGT-141 (4964_G22; 4993_K13) (antibody) (VL): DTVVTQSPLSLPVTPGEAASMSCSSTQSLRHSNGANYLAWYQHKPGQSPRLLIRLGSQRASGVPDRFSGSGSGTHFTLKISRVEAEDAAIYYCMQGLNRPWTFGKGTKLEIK
Chain of PGT-144 (4970_K22) (antibody) (VH): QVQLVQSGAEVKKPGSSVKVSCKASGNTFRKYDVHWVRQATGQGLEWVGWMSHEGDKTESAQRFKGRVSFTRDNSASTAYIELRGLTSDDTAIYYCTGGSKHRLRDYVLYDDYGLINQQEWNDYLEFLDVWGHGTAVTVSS
Chain of PGT-144 (4970_K22) (antibody) (VL): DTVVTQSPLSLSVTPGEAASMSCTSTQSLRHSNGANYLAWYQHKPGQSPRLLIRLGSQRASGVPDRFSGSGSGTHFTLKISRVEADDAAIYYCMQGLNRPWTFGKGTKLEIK
Chain of PGT-142 (4995_E20) (antibody) (VH): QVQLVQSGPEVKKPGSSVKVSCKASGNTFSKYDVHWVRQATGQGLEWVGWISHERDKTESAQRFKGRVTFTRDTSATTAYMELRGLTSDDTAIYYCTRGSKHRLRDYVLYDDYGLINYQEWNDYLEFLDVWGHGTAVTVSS
Chain of PGT-143 (4980_N08) (antibody) (VH): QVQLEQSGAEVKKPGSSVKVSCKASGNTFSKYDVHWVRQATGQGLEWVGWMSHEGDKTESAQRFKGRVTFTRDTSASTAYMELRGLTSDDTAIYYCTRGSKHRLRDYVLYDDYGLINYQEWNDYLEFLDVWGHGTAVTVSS
Chain of PGT-143 (4980_N08) (antibody) (VL): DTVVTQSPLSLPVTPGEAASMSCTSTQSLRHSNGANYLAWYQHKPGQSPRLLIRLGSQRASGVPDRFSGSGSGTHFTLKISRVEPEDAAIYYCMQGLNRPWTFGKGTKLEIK

Turning to 2F5 (antibody), the IC50 (µg/ml), pseudovirus neutralization in experiment [1] is 14.6 µg/mL; in [2] it was 2.12 µg/mL; in experiment [4], 39.1 µg/mL; in experiment [7] it was over 50 µg/mL; in experiment [8], 5.7 µg/mL; in experiment [9], over 50 µg/mL. Moreover, the IC50 (µg/ml), pseudovirus neutralization in experiment [10] was 0.6 µg/mL; in experiment [11], over 50 µg/mL; in [13], 3.24 µg/mL; in experiment [15], 1.78 µg/mL; in experiment [16] it was over 50 µg/mL. The neutralization IC50 is 2 µg/mL in experiment [3], over 50 µg/mL in experiment [6] and 3.79 µg/mL in experiment [14]. Further, the IC50 in [5] and in experiment [12] was over 50 µg/mL each time.

As to 2G12 (antibody), the IC50 (µg/ml), pseudovirus neutralization in [2] is over 50 µg/mL; in experiment [4] it was 26.1 µg/mL; in experiment [7] it was 25.7 µg/mL; in [8], over 50 µg/mL; in experiment [9], 1.81 µg/mL; in experiment [10], over 50 µg/mL. Moreover, the IC50 (µg/ml), pseudovirus neutralization in experiment [11] was 0.8 µg/mL; in [13], 45.2 µg/mL; in [15], 9.23 µg/mL; in experiment [16] it was over 50 µg/mL. In addition, the neutralization IC50 in [3], in experiment [6] and in experiment [14] was over 50 µg/mL each time. Also, the IC50 in experiment [5] and in [12] was over 50 µg/mL throughout.

In the case of 4E10 (antibody), the IC50 (µg/ml), pseudovirus neutralization was 3.69 µg/mL in experiment [1]; 5.38 µg/mL in [2]; over 50 µg/mL in experiment [4]; 35.2 µg/mL in [7]; 4.09 µg/mL in experiment [8]; 0.37 µg/mL in experiment [9]. Besides, the IC50 (µg/ml), pseudovirus neutralization in [10] stood at 0.72 µg/mL; in [11], 18.3 µg/mL; in [13] it was 8.84 µg/mL; in experiment [15] it was 0.44 µg/mL; in experiment [16], 6.45 µg/mL. Also, the values for the neutralization IC50 in [3], in experiment [6] and in experiment [14] were 5.1 µg/mL, 1.02 µg/mL and 9.7 µg/mL, respectively. In addition, the figures for the IC50 in [5] and in experiment [12] were 2.48 µg/mL and 5.84 µg/mL, respectively.

As to 1443_C16 (PG16) (TCN-116) (antibody), the IC50 (µg/ml), pseudovirus neutralization in [1] was determined as 0.01 µg/mL; in experiment [2] it was 0.11 µg/mL; in experiment [4], 0.11 µg/mL; in experiment [7], 19.7 µg/mL; in experiment [8] it was 0.09 µg/mL; in [9], 0.003 µg/mL. For the same substance, the IC50 (µg/ml), pseudovirus neutralization in [10] is 43.6 µg/mL; in experiment [11], 5.43 µg/mL; in [13], 0.01 µg/mL; in [15] it was over 50 µg/mL; in experiment [16], 0.004 µg/mL. The neutralization IC50 was over 50 µg/mL in experiment [3], 0.0687 µg/mL in experiment [6] and 0.008 µg/mL in experiment [14]. Also, the IC50 in experiment [5] was over 50 µg/mL; in experiment [12], 0.05 µg/mL.

For the substance 1495_C14 (PGC14) (antibody), the IC50 (µg/ml), pseudovirus neutralization in experiment [1], in experiment [2], in [4], in experiment [7], in [8] and in [9] was over 50 µg/mL in each case. Also, the IC50 (µg/ml), pseudovirus neutralization in experiment [10], in [11], in experiment [13], in experiment [15] and in experiment [16] was over 50 µg/mL each time. For the same substance, the neutralization IC50 is over 50 µg/mL in experiment [3], 9.5 µg/mL in [6] and over 50 µg/mL in experiment [14]. The IC50 in experiment [5] and in experiment [12] was over 50 µg/mL in each case.

For the substance 1496_C09 (PG9) (TCN-109) (antibody), the IC50 (µg/ml), pseudovirus neutralization in experiment [1] is 0.03 µg/mL; in experiment [2], 0.06 µg/mL; in experiment [4], 0.03 µg/mL; in [7], 0.59 µg/mL; in experiment [9], 0.01 µg/mL; in [10], 7.69 µg/mL. This substance had an IC50 (µg/ml), pseudovirus neutralization in [11] of 4.01 µg/mL. For the same substance, the neutralization IC50 in experiment [3] was 26.4 µg/mL; in [6] it was 24.9 µg/mL; in experiment [19], 16.5 µg/mL; in experiment [14] it was 0.173 µg/mL. Further, the IC50 (µg/mL), pseudovirus neutralization turned out to be 0.033 µg/mL in experiment [17] and 1.67 µg/mL in experiment [18]. The 50% inhibitory concentration (IC50) came to 0.64 µg/mL in experiment [5] and 0.09 µg/mL in experiment [12].

For 4838_L06 (PGT-121) (antibody), the IC50 (µg/mL), pseudovirus neutralization is 0.016 µg/mL in [20], over 50 µg/mL in [24], 0.01 µg/mL in experiment [25] and over 50 µg/mL in experiment [27]. Besides, the IC50 (µg/mL) neutralization in experiment [21] was determined as 0.019 µg/mL. This substance also showed an IC50 in [22] of 0.104 µg/mL. In [23], this substance showed a neutralization IC50 of over 50 µg/mL. Further, in experiment [26], the IC50, pseudovirus neutralization is 0.005 µg/mL.

Consider 4877_D15 (PGT-122) (antibody), for which the IC50 (µg/mL), pseudovirus neutralization in experiment [20] is 0.024 µg/mL; in experiment [24] it was over 50 µg/mL; in [25], 0.007 µg/mL; in experiment [27] it was over 50 µg/mL. The IC50 (µg/mL) neutralization in [21] stood at 0.022 µg/mL. For the same substance, the IC50, pseudovirus neutralization is 0.01 µg/mL in [28] and 0.006 µg/mL in [26]. For the same substance, in experiment [22], the IC50 came out at 0.277 µg/mL. The substance also returned a neutralization IC50 in experiment [23] of over 50 µg/mL.

PGT-121 (antibody) had an IC50 (µg/mL), pseudovirus neutralization in experiment [10] of over 50 µg/mL.

Substance PGT-122 (antibody) had an IC50 (µg/mL), pseudovirus neutralization in experiment [10] of over 50 µg/mL.

Regarding PGT-141 (4964_G22; 4993_K13) (antibody), the neutralization IC50 was over 50 µg/mL in experiment [29] and 0.222 µg/mL in experiment [19].

For PGT-142 (4995_E20) (antibody), the neutralization IC50 in experiment [29] is over 50 µg/mL; in [19] it was 0.076 µg/mL.

In the case of PGT-143 (4980_N08) (antibody), the neutralization IC50 was over 50 µg/mL in experiment [29] and 0.107 µg/mL in [19].

In the case of PGT-144 (4970_K22) (antibody), the neutralization IC50 in experiment [29] is over 50 µg/mL; in experiment [19] it was 0.562 µg/mL.

Take PGV04 (antibody): the results for the IC50 (µg/mL), pseudovirus neutralization in [17], in experiment [10] and in experiment [18] were over 50 µg/mL, 1.24 µg/mL and 0.097 µg/mL, respectively. The neutralization IC50 was found to be 0.168 µg/mL in experiment [29] and 0.056 µg/mL in [19].

Take VRC01 (antibody): the neutralization IC50 in experiment [30] is 0.088 µg/mL; in [31] it was 2.46 µg/mL; in [29] it was 0.553 µg/mL; in experiment [19], 0.056 µg/mL; in experiment [32] it was 0.421 µg/mL. The IC50, pseudovirus neutralization amounted to 0.055 µg/mL in [22] and 0.192 µg/mL in [18].

Consider b12 (antibody), for which the IC50 (µg/ml), pseudovirus neutralization in experiment [1] was over 50 µg/mL; in [2] it was over 50 µg/mL; in [4], over 50 µg/mL; in [7] it was over 50 µg/mL; in [8] it was 3.64 µg/mL; in experiment [9] it was over 50 µg/mL. The IC50 (µg/ml), pseudovirus neutralization was 29.3 µg/mL in experiment [10]; over 50 µg/mL in [11]; over 50 µg/mL in [13]; over 50 µg/mL in experiment [15]; over 50 µg/mL in experiment [16]. Further, the neutralization IC50 in experiment [3] is over 25 µg/mL; in experiment [6] it was 3.6 µg/mL; in experiment [14], 3.54 µg/mL. Moreover, the IC50 in [5] and in [12] was over 50 µg/mL in each case.
